# Reference: US20260248946A1 (TUOJIE BIOTECH SHANGHAI, published 2026)
# Where a chain is given by its changes, count along the chain named.
# T1: human CD79B on the surface of cells (DoHH2 / DOHH-2, WSU-DLCL2) (human, UniProt P40259 29-229)
# T1 sequence (looked up): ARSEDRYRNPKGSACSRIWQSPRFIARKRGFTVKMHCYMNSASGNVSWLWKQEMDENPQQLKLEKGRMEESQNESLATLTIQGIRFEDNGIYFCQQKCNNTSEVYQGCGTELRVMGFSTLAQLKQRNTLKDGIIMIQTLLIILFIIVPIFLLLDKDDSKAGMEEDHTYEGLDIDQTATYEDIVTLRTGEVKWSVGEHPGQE
# T2: human CD79B antigen (coated in the ELISA of the anti-human CD79B mouse antibodies) (human, UniProt P40259 29-159)
# T2 construct: extracellular domain; The ELISA protocols only say 'antigen'
# T2 sequence (looked up): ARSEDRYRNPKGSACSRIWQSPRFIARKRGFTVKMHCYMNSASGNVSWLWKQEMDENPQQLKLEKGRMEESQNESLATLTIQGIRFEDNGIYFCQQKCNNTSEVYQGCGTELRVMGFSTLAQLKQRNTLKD
# T3: fusion protein of human CD79B extracellular domain (ECD) and His tag (human, UniProt P40259 29-159)
# T3 construct: also called human CD79B ECD-His; Human CD79B-His protein
# T3 sequence: T2 sequence (looked up)
# T4: human CD79B-His protein (Cat. #29750-H08H, Sino Biological) (human, UniProt P40259 29-159)
# T4 construct: also called human CD79B protein; CD79B protein
# T4 sequence (looked up): T2 sequence (looked up)
# B1: ADC-7 (antibody, human IgG1, kappa, V domains shown)
# VH: EVQLVQSGAEVKKPGSSVKVSCKASGSSFSSYGINWVKQAPGQGLEWIGEIFPRSGNTYYNEKFEGRATLTADKSTSTAYMELRSLRSEDTAVYYCAKGDLGDFDYWGQGTTVTVSS
# VL: DFVMTQTPLSLPVTPGEPASISCRSSQSIVHSDGNTYFEWYLQKPGQSPKLLIYKVSNRFSGVPDRFSGSGSGTDFTLKISRVEAEDVGVYYCFQGSHVPWTFGGGTKVEIKR
# modifications: compound D coupled to cysteines after TCEP reduction; positions not given; compound D (exatecan-type linker-drug, Topo I inhibitor) coupled to cysteines after TCEP reduction; positions not given; mean n=5.84 per antibody
# B2: ADC-8 (antibody, human IgG1, kappa, V domains shown)
# VH: EVQLVESGGGLVQPGGSLRLSCAASGYTFSSYWIEWVRQAPGKGLEWIGEILPGGGDTNYNEIFKGRATFSADTSKNTAYLQMNSLRAEDTAVYYCTRRVPIRLDYWGQGTLVTVSS
# VL: DIQLTQSPSSLSASVGDRVTITCKASQSVDYEGDSFLNWYQQKPGKAPKLLIYAASNLESGVPSRFSGSGSGTDFTLTISSLQPEDFATYYCQQSNEDPLTFGQGTKVEIKR
# modifications: MC-VC-PAB-MMAE coupled to cysteines after TCEP reduction; positions not given; MC-VC-PAB-MMAE coupled to cysteines after TCEP reduction; positions not given; mean n=3.59 per antibody
# B3: ADC-3 (antibody, human IgG1, kappa, V domains shown)
# VH: B1 VH
# VL: B1 VL
# modifications: MC-vc-PAB-MMAE coupled to cysteines after TCEP reduction; positions not given; MC-vc-PAB-MMAE coupled to cysteines after TCEP reduction; positions not given; mean n=3.09 per antibody
# notes: Antibody-drug conjugate of hAb015-10; DAR 3.09; also called hAb015-10-cys-MC-vc-PAB-MMAE
# B4: ADC-5 (antibody, human IgG1, kappa, V domains shown)
# VH: B1 VH
# VL: B1 VL
# modifications: compound D coupled to cysteines after TCEP reduction; positions not given; compound D (exatecan-type linker-drug, Topo I inhibitor) coupled to cysteines after TCEP reduction; positions not given; mean n=1.81 per antibody
# notes: Antibody-drug conjugate of hAb015-10; also called HAB015-10-cys-D, with a DAR value of about 2
# B5: ADC-6 (antibody, human IgG1, kappa, V domains shown)
# VH: B1 VH
# VL: B1 VL
# modifications: compound D coupled to cysteines after TCEP reduction; positions not given; compound D (exatecan-type linker-drug, Topo I inhibitor) coupled to cysteines after TCEP reduction; positions not given; mean n=3.46 per antibody
# B6: ADC-1 (antibody, human IgG1, kappa, V domains shown)
# VH: B1 VH
# VL: B1 VL
# modifications: compound B coupled to cysteines after TCEP reduction; positions not given; compound B (eribulin-derivative linker-drug) coupled to cysteines after TCEP reduction; positions not given; mean n=3.06 per antibody
# notes: Antibody-drug conjugate of hAb015-10; DAR 3.06; also called hAb015-10-cys-B
# B7: ADC-2 (antibody, human IgG1, kappa, V domains shown)
# VH: B1 VH
# VL: B1 VL
# modifications: compound A coupled to cysteines after TCEP reduction; positions not given; compound A (Malei-PEG2-vc-PAB-MMAE) coupled to cysteines after TCEP reduction; positions not given; mean n=3.68 per antibody
# notes: Antibody-drug conjugate of hAb015-10; DAR 3.68; also called hAb015-10-cys-Malei-PEG2-vc-PAB-MMAE
# B8: ADC-4 (antibody, human IgG1, kappa, V domains shown)
# VH: B1 VH
# VL: B1 VL
# modifications: compound C coupled to cysteines after TCEP reduction; positions not given; compound C (linker-drug) coupled to cysteines after TCEP reduction; positions not given; mean n=4.52 per antibody
# notes: Antibody-drug conjugate of hAb015-10; DAR 4.52; also called hAb015-10-cys-C
# B9: SN8 (antibody, human IgG1, kappa, V domains shown)
# VH: B2 VH
# VL: B2 VL
# notes: also called positive control antibody; the antibody in Polivy (polatuzumab vedotin)
# B10: mAb015 (antibody, V domains shown)
# VH: QVQLQQSGAELARPGASVKLSCKASGSSFTSYGINWVKQRTGQGLEWIGEIFPRSGNTYYNEKFEGKATLTADKSSSTAYMELRSLTSEDSAVYFCAKGDLGDFDYWGQGTTLTVSS
# VL: DFLMTQTPLSLPVRLGDQASISCRSSQSIVHSDGNTYFEWYLQKPGQSPKLLIYKVSNRFSGVPDRFSGSGSGTDFTLKISRVEAEDLGVYYCFQGSHVPWTFGGGTKLEIK
# notes: Mouse monoclonal antibody from hybridoma; also called 83B2G2
# B11: mAb016 (antibody, V domains shown)
# VH: QVQLQQSGAELARPGASVKLSCKASGYIFTNYGIIWVKQRTGQGLEWIGDIFPGSGNTYYNENFKGKATLTADKSSSTAYMELRSLTSEDSAVYFCSRGELGDFDYWGQGTTLTVSS
# VL: B10 VL with D1V, F2V, R14S, S28N, N35T, F38L, V90I
# B12: mAb017 (antibody, V domains shown)
# VH: QVQLQQSGAELARPGASVKLSCKASGYTFTTYGINWVKQRTGQGLEWIGEIYPRSGNIYYNEKFKGKATLTADKSSSTAYMELRSLTSEDSAVYFCARGSDYDGDFAYWGQGTLVTVSA
# VL: B10 VL with F2V, R14S, S32H, F38L, K108Q
# notes: Mouse monoclonal antibody from hybridoma; also called 86F11F6
# B13: hAb015-10 (antibody, human IgG1, kappa, V domains shown)
# VH: B1 VH
# VL: B1 VL
# notes: Humanized antibody; also called hAb015-10 humanized antibody; humanized mAb015
# B14: hAb017-10 (antibody, human IgG1, kappa, V domains shown)
# VH: EVQLVQSGAEVKKPGASVKVSCKASGYTFTTYGINWVKQAPGQGLEWIGEIYPRSGNIYYNEKFKGKATLTADKSTSTAYMELRSLRSDDTAVYYCARGSDYDGDFAYWGQGTLVTVSS
# VL: B1 VL with F2V, S32H, F38L, K50Q
# notes: Humanized antibody; also called hAb017-10 humanized antibody
# What was measured:
# [1] = biological target: T1, human CD79B on the surface of cells …; experiment: cell-based or functional assay
# [2] = biological target: T1, human CD79B on the surface of cells …; experiment: cell-based or functional assay; remark: listed apart in the source
# [3] = biological target: T1, human CD79B on the surface of cells …; experiment: FACS on DoHH2 cells
# Procedure: 3) Assay on anti-human CD79B mouse monoclonal antibodies by FACS The cell suspension of DoHH2 cells was centrifuged, resuspended in PBS containing 0.1% BSA, and counted. 100 μL of antibody diluted in a 1:10 ratio from 100 nM was added, and the cells were incubated at room temperature for 1 h and washed three times. Then Anti-Mouse IgG (Fc specific)-FITC secondary antibody was added, and the cells were incubated at room temperature for 30 min away from the light, washed three times, gently resuspended in PBS containing 0.1% BSA, and loaded on the machine for assay.
# [4] = biological target: T2, human CD79B antigen (coated in the …); experiment: ELISA on coated human CD79B antigen
# Procedure: 2) Assay on anti-human CD79B mouse monoclonal antibodies by ELISA A 96-well plate was coated with 1 μg/mL antigen at 50 μL/well and incubated in a refrigerator at 4° C. overnight. The next day, the coated antigen plate was washed once (washing solution: 1× PBST). After washing, the plate was blocked with 1% BSA blocking solution prepared in 1× PBST at 37° C. for 1 h. After washing the plate 3 times with 1× PBST, 50 μL of antibody diluted in a 1:10 ratio from 100 nM was added, and the plate was incubated in an incubator at 37° C. for 1 h. After washing the plate 3 times with 1× PBST, 100 μL of goat anti-mouse secondary antibody diluted in a 1:5000 ratio was added, and the plate was incubated in an incubator at 37° C. for 0.5 h. After washing the plate, TMB color development solutions A and B were mixed in a 1:1 ratio for color development. 15 min later, the color development reaction was stopped with 1 N hydrochloric acid. […] value was read at 450 nm on a Spectra Max M5 microplate reader.
# [5] = biological target: T1, human CD79B on the surface of cells …; experiment: FACS on DoHH2 cells; remark: listed apart in the source
# [6] = biological target: T3, fusion protein of human CD79B …; experiment: SPR, Human CD79B-His protein
# [7] = biological target: T3, fusion protein of human CD79B …; experiment: ELISA on Human CD79B-His protein
# [8] = biological target: T4, human CD79B-His protein (Cat. …); experiment: Biacore T200, antibody captured by anti-human capture antibody on CM5, 1:1 Langmuir fit; EC50
# Source text: Experimental procedures: human antibody capture antibodies were covalently coupled to a CM5 biochip according to the method described instructions of the human antibody capture kit for affinity capture of a certain amount of CD79B antibody.
# Statistics and analysis of data: data were fitted by BIAevaluation version 4.1, GE software using a (1:1) Langmuir model to obtain affinity values.
"Endocytosis rate (4 h), DoHH2 cells [1] [%]","IC50 of in vitro proliferation, DoHH2 cells (MTT, 72 h) [2] [µg/mL]","IC50 of in vitro proliferation, WSU-DLCL2 cells (MTT, 72 h) [2] [µg/mL]",also measured,Binder
68,0.002,0.0534,–,B1
76,0.0806,0.117,–,B2
70,0.0033,0.0059,–,B3
76,0.0085,0.0683,–,B4
75,0.0033,0.0542,–,B5
73,–,–,–,B6
66,–,–,–,B7
81,–,–,–,B8
–,–,–,EC50 (read off the curve) [3]: ~0.09 µg/mL,B9
–,–,–,EC50 (read off the curve) [3]: ~0.03 µg/mL; EC50 (read off the curve) [4]: 0.1 to 0.2 nM,B10
–,–,–,EC50 (read off the curve) [3]: ~0.02 µg/mL; EC50 (read off the curve) [4]: 0.1 to 0.2 nM,B11
–,–,–,EC50 (read off the curve) [3]: ~0.02 µg/mL; EC50 (read off the curve) [4]: 0.1 to 0.2 nM,B12
–,–,–,EC50 [5]: 0.4 nM; Kd [6]: 1.5 nM; EC50 [7]: 0.05 nM; EC50 [8]: 0.38 nM,B13
–,–,–,EC50 [5]: 0.55 nM; Kd [6]: 4.3 nM; EC50 [7]: 0.06 nM,B14
